From PMC4130924 (Protein & Cell, 2014)
One block for each binder: values may come before it.

B1: Human ubiquitin C-terminal hydrolase Uch37, full-length (enzyme, UniProt Q9Y5K5 1-329, looked up)
chain: MTGNAGEWCLMESDPGVFTELIKGFGCRGAQVEEIWSLEPENFEKLKPVHGLIFLFKWQPGEEPAGSVVQDSRLDTIFFAKQVINNACATQAIVSVLLNCTHQDVHLGETLSEFKEFSQSFDAAMKGLALSNSDVIRQVHNSFARQQMFEFDTKTSAKEEDAFHFVSYVPVNGRLYELDGLREGPIDLGACNQDDWISAVRPVIEKRIQKYSEGEIRFNLMAIVSDRKMIYEQKIAELQRQLAEEEPMDTDQGNSMLSAIQSEVAKNQMLIEEEVQKLKRYKIENIRRKHNYLPFIMELLKTLAEHQQLIPLVEKAKEKQNAKKAQETK
B2: Full-length Uch37 containing only one cysteine (C27), labelled with Alexa Fluor 555 and Alexa Fluor 647 (enzyme, human, UniProt Q9Y5K5 1-329, looked up)
chain: MTGNAGEWALMESDPGVFTELIKGFGCRGAQVEEIWSLEPENFEKLKPVHGLIFLFKWQPGEEPAGSVVQDSRLDTIFFAKQVINNAAATQAIVSVLLNATHQDVHLGETLSEFKEFSQSFDAAMKGLALSNSDVIRQVHNSFARQQMFEFDTKTSAKEEDAFHFVSYVPVNGRLYELDGLREGPIDLGAANQDDWISAVRPVIEKRIQKYSEGEIRFNLMAIVSDRKMIYEQKIAELQRQLAEEEPMDTDQGNSMLSAIQSEVAKNQMLIEEEVQKLKRYKIENIRRKHNYLPFIMELLKTLAEHQQLIPLVEKAKEKQNAKKAQETK
modifications: Cys27 conjugated to Alexa Fluor 555 or Alexa Fluor 647 (randomly)

How the values were obtained:
[1] = target: the molecule itself; assay: time-resolved SAXS; stopped-flow mixing of Uch37 and Rpn13C at a 1:1 monomer molar ratio, overall 3.7 mg/mL, 8 ms to 600 s; I0 and Rg against time
[2] = target: the molecule itself; assay: FRET or BRET; Uch37 (C27 only) randomly labelled with Alexa Fluor 555 and 647, 250 nmol/L, excited at 550 nm; then an excess molar amount of Rpn13C added, 30 min
[3] = target: B1; assay: SPR; Biacore3000, 25°C, PBS; Rpn13C immobilised on CM5 by amine coupling, Uch37 15.6-500 nmol/L flowed over; 1:1 Langmuir model; details: both partners purified
[4] = target: B2; assay: FRET or BRET; Uch37 (C27 only) randomly labelled with Alexa Fluor 555 and 647, 250 nmol/L, excited at 550 nm; then an excess molar amount of Rpn13C added, 30 min; details: both partners purified

Binder: B1
- binding result [1]: binds

Binder: B2
- binding result [2]: binds

- Kd [3]: 5.35 nM
- binding result [4]: binds
B3: Rpn13C (Rpn13 residues 270-407) (domain or fragment, UniProt Q16186 270-407, looked up)
chain: ILATMNVPAGPAGGQQVDLASVLTPEIMAPILANADVQERLLPYLPSGESLPQTADEIQNTLTSPQFQQALGMFSAALASGQLGPLMCQFGLPAEAVEAANKGDVEAFAKAMQNNAKPEQKEGDTKDKKDEEEDMSLD
